Substitutions are numbered along the chain they refer to. Names and notes keep the numbering of the source.
B1: V229A: NTR point mutant (protein, UniProt P20789 1-424, looked up, variant V229A)
Neurotensin receptor type 1: MHLNSSVPQGTPGEPDAQPFSGPQSEMEATFLALSLSNGSGNTSESDTAGPNSDLDVNTDIYSKVLVTAIYLALFVVGTVGNSVTAFTLARKKSLQSLQSTVHYHLGSLALSDLLILLLAMPVELYNFIWVHHPWAFGDAGCRGYYFLRDACTYATALNVASLSVERYLAICHPFKAKTLMSRSRTKKFISAIWLASALLAIPMLFTMGLQNRSGDGTHPGGLVCTPIADTATVKVVIQVNTFMSFLFPMLVISILNTVIANKLTVMVHQAAEQGRVCTVGTHNGLEHSTFNMTIEPGRVQALRHGVLVLRAVVIAFVVCWLPYHVRRLMFCYISDEQWTTFLFDFYHYFYMLTNALFYVSSAINPILYNLVSANFRQVFLSTLACLCPGWRHRRKKRPTFSRKPNSMSSNHAFSTSATRETLY
B2: E219A: A2aR point mutant (protein, UniProt P29274 1-412, looked up, variant E219A)
Adenosine receptor A2a: MPIMGSSVYITVELAIAVLAILGNVLVCWAVWLNSNLQNVTNYFVVSLAAADIAVGVLAIPFAITISTGFCAACHGCLFIACFVLVLTQSSIFSLLAIAIDRYIAIRIPLRYNGLVTGTRAKGIIAICWVLSFAIGLTPMLGWNNCGQPKEGKNHSQGCGEGQVACLFEDVVPMNYMVYFNFFACVLVPLLLMLGVYLRIFLAARRQLKQMESQPLPGARARSTLQKEVHAAKSLAIIVGLFALCWLPLHIINCFTFFCPDCSHAPLWLMYLAIVLSHTNSVVNPFIYAYRIREFRQTFRKIIRSHVLRQQEPFKAAGTSARVLAAHGSDGEQVSLRLNGHPPGVWANGSAPHPERRPNGYALGLVSGGSAQESQGNTGLPDVELLSHELKGVCPEPPGLDDPLAQDGAGVS
B3: L167A: A2aR point mutant (protein, UniProt P29274 1-412, looked up, variant L167A)
Adenosine receptor A2a: B2 Adenosine receptor A2a with L167A, A219E
B4: Q226A: A2aR point mutant (protein, UniProt P29274 1-412, looked up, variant Q226A)
Adenosine receptor A2a: B2 Adenosine receptor A2a with A219E, Q226A
B5: P313A: A2aR point mutant (protein, UniProt P29274 1-412, looked up, variant P313A)
Adenosine receptor A2a: B2 Adenosine receptor A2a with A219E, P313A
B6: L241A: A2aR point mutant (protein, UniProt P29274 1-412, looked up, variant L241A)
Adenosine receptor A2a: B2 Adenosine receptor A2a with A219E, L241A
B7: L235A: A2aR point mutant (protein, UniProt P29274 1-412, looked up, variant L235A)
Adenosine receptor A2a: B2 Adenosine receptor A2a with A219E, L235A
B8: G114A: A2aR point mutant (protein, UniProt P29274 1-412, looked up, variant G114A)
Adenosine receptor A2a: B2 Adenosine receptor A2a with G114A, A219E
B9: G123A: A2aR point mutant (protein, UniProt P29274 1-412, looked up, variant G123A)
Adenosine receptor A2a: B2 Adenosine receptor A2a with G123A, A219E
B10: Q311A: A2aR point mutant (protein, UniProt P29274 1-412, looked up, variant Q311A)
Adenosine receptor A2a: B2 Adenosine receptor A2a with A219E, Q311A
B11: T224A: A2aR point mutant (protein, UniProt P29274 1-412, looked up, variant T224A)
Adenosine receptor A2a: B2 Adenosine receptor A2a with A219E, T224A
B12: H75A: A2aR point mutant (protein, UniProt P29274 1-412, looked up, variant H75A)
Adenosine receptor A2a: B2 Adenosine receptor A2a with H75A, A219E
B13: H230A: A2aR point mutant (protein, UniProt P29274 1-412, looked up, variant H230A)
Adenosine receptor A2a: B2 Adenosine receptor A2a with A219E, H230A
B14: K227A: A2aR point mutant (protein, UniProt P29274 1-412, looked up, variant K227A)
Adenosine receptor A2a: B2 Adenosine receptor A2a with A219E, K227A
B15: S263A: A2aR point mutant (protein, UniProt P29274 1-412, looked up, variant S263A)
Adenosine receptor A2a: B2 Adenosine receptor A2a with A219E, S263A
B16: G118A: A2aR point mutant (protein, UniProt P29274 1-412, looked up, variant G118A)
Adenosine receptor A2a: B2 Adenosine receptor A2a with G118A, A219E
B17: A204L: A2aR point mutant (protein, UniProt P29274 1-412, looked up, variant A204L)
Adenosine receptor A2a: B2 Adenosine receptor A2a with A204L, A219E
B18: T119A: A2aR point mutant (protein, UniProt P29274 1-412, looked up, variant T119A)
Adenosine receptor A2a: B2 Adenosine receptor A2a with T119A, A219E
B19: K315A: A2aR point mutant (protein, UniProt P29274 1-412, looked up, variant K315A)
Adenosine receptor A2a: B2 Adenosine receptor A2a with A219E, K315A
B20: P260A: A2aR point mutant (protein, UniProt P29274 1-412, looked up, variant P260A)
Adenosine receptor A2a: B2 Adenosine receptor A2a with A219E, P260A
B21: A231L: A2aR point mutant (protein, UniProt P29274 1-412, looked up, variant A231L)
Adenosine receptor A2a: B2 Adenosine receptor A2a with A219E, A231L
B22: S223A: A2aR point mutant (protein, UniProt P29274 1-412, looked up, variant S223A)
Adenosine receptor A2a: B2 Adenosine receptor A2a with A219E, S223A
B23: E151A: A2aR point mutant (protein, UniProt P29274 1-412, looked up, variant E151A)
Adenosine receptor A2a: B2 Adenosine receptor A2a with E151A, A219E
B24: G152A: A2aR point mutant (protein, UniProt P29274 1-412, looked up, variant G152A)
Adenosine receptor A2a: B2 Adenosine receptor A2a with G152A, A219E
B25: L267A: A2aR point mutant (protein, UniProt P29274 1-412, looked up, variant L267A)
Adenosine receptor A2a: B2 Adenosine receptor A2a with A219E, L267A
B26: V57A: A2aR point mutant (protein, UniProt P29274 1-412, looked up, variant V57A)
Adenosine receptor A2a: B2 Adenosine receptor A2a with V57A, A219E
B27: A54L: A2aR point mutant (protein, UniProt P29274 1-412, looked up, variant A54L)
Adenosine receptor A2a: B2 Adenosine receptor A2a with A54L, A219E
B28: R220A: A2aR point mutant (protein, UniProt P29274 1-412, looked up, variant R220A)
Adenosine receptor A2a: B2 Adenosine receptor A2a with A219E, R220A
B29: N284A: A2aR point mutant (protein, UniProt P29274 1-412, looked up, variant N284A)
Adenosine receptor A2a: B2 Adenosine receptor A2a with A219E, N284A
B30: L272A: A2aR point mutant (protein, UniProt P29274 1-412, looked up, variant L272A)
Adenosine receptor A2a: B2 Adenosine receptor A2a with A219E, L272A
B31: K122A: A2aR point mutant (protein, UniProt P29274 1-412, looked up, variant K122A)
Adenosine receptor A2a: B2 Adenosine receptor A2a with K122A, A219E
B32: T88A: A2aR point mutant (protein, UniProt P29274 1-412, looked up, variant T88A)
Adenosine receptor A2a: B2 Adenosine receptor A2a with T88A, A219E
B33: P149A: A2aR point mutant (protein, UniProt P29274 1-412, looked up, variant P149A)
Adenosine receptor A2a: B2 Adenosine receptor A2a with P149A, A219E

Test: Thermostability of neurotensin receptor (NTR) mutants (3H-neurotensin binding)
Assay type: physicochemical
Details: Ligand(+) format
Method: (§1) FIG. 12 Flow chart showing the two different assay formats of ligand (+) and ligand (−) used to determine receptor thermostablity.
3. Mutants tested for thermostability by heating in the absence of the agonist were re-tested using a slightly different assay where the mutants were heated in the presence of ^3H-neurotensin (Ligand(+) format in FIG. 12). […] All of these also have increased thermostability. • 5. Preferred combinations are • a. Nag7m F358A+A86L+1260A+F342A Tm 51° C. (neurotensin bound) • b. Nag7n F358A+H103A+1260A+F342A Tm 51° C. (neurotensin bound) • Wildtype NTR has a Tm of 35° C. with neurotensin bound.

| Molecule | thermostability, heated in the presence of 3H-neurotensin |
| --- | --- |
| B1 | improved thermostability |

Test: Thermostability of solubilised adenosine A2a receptor and mutants (radioligand binding after or during heating)
Assay type: physicochemical
Details: Ligand(−) format, binding after the heating step
Text: as §1
• 1. 315 site-directed mutants made between residues 2-316 of A2aR. • 2. All of these mutants have been assayed for thermostability using an assay measuring agonist and antagonist binding after the heating step (Ligand(−) format as described in FIG. 12). • a. […] Mutations have been combined to generate mutants in a putative antagonist conformation. Wildtype A2aR has a Tm of 31° C. with ZM241385 bound. • a. Rant17 A54L+K122A+L235A Tm 48° C. (ZM241385 bound) • b. Rant19 A54L,T88A,V239A+A204L Tm 47° C. (ZM241385 bound) • c. Rant21 A54L,T88A,V239A+K122A Tm 49° C. (ZM241385 bound) • 4. Mutations from the agonist screen have been combined, but have led to only a very low level of improvement in Tm of +2° C.

| Molecule | thermostability measured with 3H-NECA (agonist) | thermostability assayed with 3H-ZM241385 (antagonist) |
| --- | --- | --- |
| B2 | improved thermostability | – |
| B3 | improved thermostability | – |
| B4 | improved thermostability | – |
| B5 | improved thermostability | – |
| B6 | improved thermostability | – |
| B7 | – | improved thermostability |
| B8 | improved thermostability | improved thermostability |
| B9 | – | improved thermostability |
| B10 | improved thermostability | – |
| B11 | improved thermostability | – |
| B12 | – | improved thermostability |
| B13 | improved thermostability | – |
| B14 | improved thermostability | – |
| B15 | improved thermostability | – |
| B16 | improved thermostability | improved thermostability |
| B17 | – | improved thermostability |

| Molecule | thermostability measured with 3H-NECA (agonist) | thermostability assayed with 3H-ZM241385 (antagonist) |
| --- | --- | --- |
| B18 | – | improved thermostability |
| B19 | improved thermostability | – |
| B20 | improved thermostability | – |
| B21 | – | improved thermostability |
| B22 | improved thermostability | – |
| B23 | – | improved thermostability |
| B24 | – | improved thermostability |
| B25 | improved thermostability | – |
| B26 | – | improved thermostability |
| B27 | – | improved thermostability |
| B28 | improved thermostability | – |
| B29 | improved thermostability | – |
| B30 | improved thermostability | – |
| B31 | – | improved thermostability |
| B32 | – | improved thermostability |
| B33 | – | improved thermostability |
